Laboratory results from patent US20080199851A1.
Where “and” joins values, the source holds several entries; their conditions need not be identical. Equal entries are not always repeated.

What was measured:
[1] = biological target: Inactivated influenza B virus Hong Kong 5/72 (Influenza B virus Hong Kong 5/72); assay: lateral-flow sandwich, B line: M2110171 striped + 2/3-Eu
[2] = biological target: Inactivated influenza B virus Hong Kong 5/72 (Influenza B virus Hong Kong 5/72); assay: lateral-flow sandwich, M2110171 line + 2/3-gold, 0.021 HA/test
[3] = biological target: Inactivated influenza B virus Hong Kong 5/72 (Influenza B virus Hong Kong 5/72); assay: lateral-flow sandwich, M2110171 line + 2/3-gold, 0.041 HA/test
[4] = biological target: Inactivated influenza B virus Hong Kong 5/72 (Influenza B virus Hong Kong 5/72); assay: lateral-flow sandwich, M2110171 line + 2/3-gold, 0.082 HA/test
[5] = biological target: Inactivated influenza B virus Hong Kong 5/72 (Influenza B virus Hong Kong 5/72); assay: lateral-flow sandwich, M2110171 line + 2/3-gold, 0.164 HA/test
[6] = biological target: Inactivated influenza B virus Hong Kong 5/72 (Influenza B virus Hong Kong 5/72); assay: lateral-flow sandwich, M2110171 line + 2/3-Eu, 0.0021 HA units
[7] = biological target: Inactivated influenza B virus Hong Kong 5/72 (Influenza B virus Hong Kong 5/72); assay: lateral-flow sandwich, M2110171 line + 2/3-Eu, 0.0041 HA units
[8] = biological target: Inactivated influenza B virus Hong Kong 5/72 (Influenza B virus Hong Kong 5/72); assay: lateral-flow sandwich, M2110171 line + 2/3-Eu, 0.0082 HA units
[9] = biological target: Inactivated influenza B virus Hong Kong 5/72 (Influenza B virus Hong Kong 5/72); assay: lateral-flow sandwich, M2110171 line + 2/3-Eu, 0.0123 HA units
[10] = biological target: Inactivated influenza B virus Hong Kong 5/72 (Influenza B virus Hong Kong 5/72); assay: lateral-flow sandwich, M2110171 line + 2/3-Eu, 0.0164 HA units
[11] = biological target: Inactivated influenza B virus Hong Kong 5/72 (Influenza B virus Hong Kong 5/72); assay: lateral-flow sandwich, M2110171 line + 2/3-Eu, 0.0328 HA units
[12] = biological target: Inactivated influenza B virus Hong Kong 5/72 (Influenza B virus Hong Kong 5/72); assay: lateral-flow sandwich, M2110171 line + 2/3-Eu, 0.002 HA units/test
[13] = biological target: Inactivated influenza B virus Hong Kong 5/72 (Influenza B virus Hong Kong 5/72); assay: lateral-flow sandwich, M2110171 line + 2/3-Eu, 0.004 HA units/test
[14] = biological target: Inactivated influenza B virus Hong Kong 5/72 (Influenza B virus Hong Kong 5/72); assay: lateral-flow sandwich, M2110171 line + 2/3-Eu, 0.008 HA units/test
[15] = biological target: Inactivated influenza B virus Hong Kong 5/72 (Influenza B virus Hong Kong 5/72); assay: lateral-flow sandwich, M2110171 line + 2/3-Eu, 0.016 HA units/test
[16] = biological target: Inactivated influenza B virus Hong Kong 5/72 (Influenza B virus Hong Kong 5/72); assay: lateral-flow sandwich, M2110171 line + 2/3-Eu, 0.032 HA units/test
[17] = biological target: Inactivated influenza B virus Hong Kong 5/72 (Influenza B virus Hong Kong 5/72); assay: lateral-flow sandwich, M2110171 line + 2/3-Eu, 0.002 HA units/test, against 0 HA
[18] = biological target: Inactivated influenza B virus Hong Kong 5/72 (Influenza B virus Hong Kong 5/72); assay: lateral-flow sandwich, M2110171 line + 2/3-Eu, 0.004 HA units/test, against 0 HA
[19] = biological target: Inactivated influenza B virus Hong Kong 5/72 (Influenza B virus Hong Kong 5/72); assay: lateral-flow sandwich, M2110171 line + 2/3-Eu, 0.008 HA units/test, against 0 HA
[20] = biological target: Inactivated influenza B virus Hong Kong 5/72 (Influenza B virus Hong Kong 5/72); assay: lateral-flow sandwich, M2110171 line + 2/3-Eu, 0.016 HA units/test, against 0 HA
[21] = biological target: Inactivated influenza B virus Hong Kong 5/72 (Influenza B virus Hong Kong 5/72); assay: lateral-flow sandwich, M2110171 line + 2/3-Eu, 0.032 HA units/test, against 0 HA
[22] = biological target: Inactivated influenza B virus Hong Kong 5/72 (Influenza B virus Hong Kong 5/72); assay: lateral-flow sandwich, A line: 7304 striped + M4090913-Eu
[23] = biological target: Inactivated influenza A virus Texas 1/77 (H3N2) (Influenza A virus Texas 1/77 (H3N2)); assay: lateral-flow sandwich, 7304 line + M4090913-gold, 0.21 HA/test
[24] = biological target: Inactivated influenza A virus Texas 1/77 (H3N2) (Influenza A virus Texas 1/77 (H3N2)); assay: lateral-flow sandwich, 7304 line + M4090913-gold, 0.41 HA/test
[25] = biological target: Inactivated influenza A virus Texas 1/77 (H3N2) (Influenza A virus Texas 1/77 (H3N2)); assay: lateral-flow sandwich, 7304 line + M4090913-gold, 0.82 HA/test
[26] = biological target: Inactivated influenza A virus Texas 1/77 (H3N2) (Influenza A virus Texas 1/77 (H3N2)); assay: lateral-flow sandwich, 7304 line + M4090913-gold, 1.64 HA/test
[27] = biological target: Inactivated influenza A virus Texas 1/77 (H3N2) (Influenza A virus Texas 1/77 (H3N2)); assay: lateral-flow sandwich, 7304 line + M4090913-Eu, 0.021 HA units
[28] = biological target: Inactivated influenza A virus Texas 1/77 (H3N2) (Influenza A virus Texas 1/77 (H3N2)); assay: lateral-flow sandwich, 7304 line + M4090913-Eu, 0.041 HA units
[29] = biological target: Inactivated influenza A virus Texas 1/77 (H3N2) (Influenza A virus Texas 1/77 (H3N2)); assay: lateral-flow sandwich, 7304 line + M4090913-Eu, 0.082 HA units
[30] = biological target: Inactivated influenza A virus Texas 1/77 (H3N2) (Influenza A virus Texas 1/77 (H3N2)); assay: lateral-flow sandwich, 7304 line + M4090913-Eu, 0.123 HA units
[31] = biological target: Inactivated influenza A virus Texas 1/77 (H3N2) (Influenza A virus Texas 1/77 (H3N2)); assay: lateral-flow sandwich, 7304 line + M4090913-Eu, 0.164 HA units
[32] = biological target: Inactivated influenza A virus Texas 1/77 (H3N2) (Influenza A virus Texas 1/77 (H3N2)); assay: lateral-flow sandwich, 7304 line + M4090913-Eu, 0.328 HA units
[33] = biological target: Inactivated influenza A virus Texas 1/77 (H3N2) (Influenza A virus Texas 1/77 (H3N2)); assay: lateral-flow sandwich, 7304 line + M4090913-Eu, 1 HA unit/test
[34] = biological target: Inactivated influenza A virus Texas 1/77 (H3N2) (Influenza A virus Texas 1/77 (H3N2)); assay: lateral-flow sandwich, 7304 line + M4090913-Eu, 0.021 HA unit
[35] = biological target: Inactivated influenza A virus Texas 1/77 (H3N2) (Influenza A virus Texas 1/77 (H3N2)); assay: lateral-flow sandwich, 7304 line + M4090913-gold, 0.105 HA/test
[36] = biological target: Inactivated influenza A virus Texas 1/77 (H3N2) (Influenza A virus Texas 1/77 (H3N2)); assay: lateral-flow sandwich, 7304 line + M4090913-Eu, 0.1 HA units/test
[37] = biological target: Inactivated influenza A virus Texas 1/77 (H3N2) (Influenza A virus Texas 1/77 (H3N2)); assay: lateral-flow sandwich, 7304 line + M4090913-Eu, 0.01 HA units/test
[38] = biological target: Inactivated influenza A virus Texas 1/77 (H3N2) (Influenza A virus Texas 1/77 (H3N2)); assay: lateral-flow sandwich, 7304 line + M4090913-Eu, 0.02 HA units/test
[39] = biological target: Inactivated influenza A virus Texas 1/77 (H3N2) (Influenza A virus Texas 1/77 (H3N2)); assay: lateral-flow sandwich, 7304 line + M4090913-Eu, 0.04 HA units/test
[40] = biological target: Inactivated influenza A virus Texas 1/77 (H3N2) (Influenza A virus Texas 1/77 (H3N2)); assay: lateral-flow sandwich, 7304 line + M4090913-Eu, 1 HA unit/test, against 0 HA
[41] = biological target: Inactivated influenza A virus Texas 1/77 (H3N2) (Influenza A virus Texas 1/77 (H3N2)); assay: lateral-flow sandwich, 7304 line + M4090913-Eu, 0.1 HA units/test, against 0 HA
[42] = biological target: Inactivated influenza A virus Texas 1/77 (H3N2) (Influenza A virus Texas 1/77 (H3N2)); assay: lateral-flow sandwich, 7304 line + M4090913-Eu, 0.01 HA units/test, against 0 HA
[43] = biological target: Inactivated influenza A virus Texas 1/77 (H3N2) (Influenza A virus Texas 1/77 (H3N2)); assay: lateral-flow sandwich, 7304 line + M4090913-Eu, 0.02 HA units/test, against 0 HA
[44] = biological target: Inactivated influenza A virus Texas 1/77 (H3N2) (Influenza A virus Texas 1/77 (H3N2)); assay: lateral-flow sandwich, 7304 line + M4090913-Eu, 0.04 HA units/test, against 0 HA
[45] = biological target: Inactivated influenza B virus Hong Kong 5/72 (Influenza B virus Hong Kong 5/72)
[46] = biological target: Inactivated influenza B virus Hong Kong 5/72 (Influenza B virus Hong Kong 5/72); assay: lateral-flow sandwich, 9901 line + 2/3-Eu, 0.0021 HA units
[47] = biological target: Inactivated influenza B virus Hong Kong 5/72 (Influenza B virus Hong Kong 5/72); assay: lateral-flow sandwich, 9901 line + 2/3-Eu, 0.0041 HA units
[48] = biological target: Inactivated influenza B virus Hong Kong 5/72 (Influenza B virus Hong Kong 5/72); assay: lateral-flow sandwich, 9901 line + 2/3-Eu, 0.0082 HA units
[49] = biological target: Inactivated influenza B virus Hong Kong 5/72 (Influenza B virus Hong Kong 5/72); assay: lateral-flow sandwich, 9901 line + 2/3-Eu, 0.0123 HA units
[50] = biological target: Inactivated influenza B virus Hong Kong 5/72 (Influenza B virus Hong Kong 5/72); assay: lateral-flow sandwich, 9901 line + 2/3-Eu, 0.0164 HA units
[51] = biological target: Inactivated influenza B virus Hong Kong 5/72 (Influenza B virus Hong Kong 5/72); assay: lateral-flow sandwich, 9901 line + 2/3-Eu, 0.0328 HA units

Substance: Anti-Flu B nucleoprotein M2110171 (Fitzgerald) (antibody)
- Signal/noise of test line [1]: 437
- Peak Intensity [2]: 2.8 and 2.7
- Peak Intensity(avg) [2]: 2.78
- Peak Intensity [3]: 4.8 and 4.6
- Peak Intensity(avg) [3]: 4.67
- Peak Intensity [4]: 7.3 and 8.2
- Peak Intensity(avg) [4]: 7.76
- Peak Intensity [5]: 14.4 and 13.3
- Peak Intensity(avg) [5]: 13.8
- fluorescence intensity (AVG) [6]: 1380
- fluorescence intensity (AVG) [7]: 2670
- fluorescence intensity (AVG) [8]: 3590
- fluorescence intensity (AVG) [9]: 6550
- fluorescence intensity (AVG) [10]: 7130
- fluorescence intensity (AVG) [11]: 12800
- Net peak height [12]: 496 and 539
- Net peak height (AVG) [12]: 517
- Net peak height [13]: 884 and 896
- Net peak height (AVG) [13]: 890
- Net peak height [14]: 1630 and 1700
- Net peak height (AVG) [14]: 1670
- Net peak height [15]: 3330 and 2570
- Net peak height (AVG) [15]: 2950
- Net peak height [16]: 7200 and 6970
- Net peak height (AVG) [16]: 7090
- signal/noise [17]: 3.5
- signal/noise [18]: 6
- signal/noise [19]: 11.2
- signal/noise [20]: 19.8
- signal/noise [21]: 47.6

Substance: anti-Flu A Medix 7304 antibody
- Signal/noise of test line [22]: 4.8
- Peak Intensity [23]: 4.8 and 8.6
- Peak Intensity(avg) [23]: 6.7
- Peak Intensity [24]: 13.2 and 9.1
- Peak Intensity(avg) [24]: 11.2
- Peak Intensity [25]: 14.8 and 13.5
- Peak Intensity(avg) [25]: 14.1
- Peak Intensity [26]: 26.4 and 22.5
- Peak Intensity(avg) [26]: 24.5
- fluorescence intensity (AVG) [27]: 1270
- fluorescence intensity (AVG) [28]: 1600
- fluorescence intensity (AVG) [29]: 2280
- fluorescence intensity (AVG) [30]: 3730
- fluorescence intensity (AVG) [31]: 4080
- fluorescence intensity (AVG) [32]: 8690
- fluorescence signal [33]: 21100 and 20000
- fluorescence signal (AVG) [33]: 20500
- Signal/noise (S/N) ratio [34]: 2.03
- Peak Intensity [35]: 2.2 and 3.3
- Peak Intensity(avg) [35]: 2.8
- fluorescence signal [36]: 2550 and 2400
- fluorescence signal (AVG) [36]: 2470
- fluorescence signal [37]: 794 and 776
- fluorescence signal (AVG) [37]: 785
- fluorescence signal [38]: 936 and 1040
- fluorescence signal (AVG) [38]: 987
- fluorescence signal [39]: 1420 and 1440
- fluorescence signal (AVG) [39]: 1430
- S/N [40]: 37.4
- S/N [41]: 4.5
- S/N [42]: 1.4
- S/N [43]: 1.8
- S/N [44]: 2.6

Substance: anti-Flu B Medix 9901 antibody
- S/N ratio [45]: 4.96
- fluorescence intensity (AVG) [46]: 1490
- fluorescence intensity (AVG) [47]: 1580
- fluorescence intensity (AVG) [48]: 2480
- fluorescence intensity (AVG) [49]: 2710
- fluorescence intensity (AVG) [50]: 5440
- fluorescence intensity (AVG) [51]: 9990
